Results taken from US20250163149A1, “ANTI-RAGE ANTIBODY” (Swansea University, priority 2022, published 2025).
“Also recorded” adds a separate entry of the source.

Tests used:
RAGE [1] = target: T1, RAGE (Homo sapiens, UniProt Q15109); assay: Binding target blocking assay by immunofluorescence on HEC-1A cells; format: cell-based; set-up: endogenous in cells; host or cells: HEC-1A (ECACC); conditions: then antibody at 4 μg/ml
Procedure: To proof that HA9 shares similar binding epitope as other α-RAGE antibodies, an immunofluorescence approach was used. For this purpose, 1.5×10^4 HEC1A cells/well (obtained from the European Collection of Authenticated Cell Cultures, ECACC, Public Health England, UK) were seeded in 8-well chamber slides (Ibidi) in 300 μl of stripped medium and cultured for 24 h in a humidified, 5% CO2 in air atmosphere incubator at 37° C. After culture, cells were fixed with 4% paraformaldehyde (Sigma) for 20 minutes, permeabilized with 0.1% Triton X-100 (Sigma) for 10 minutes at 4° C. and blocked with 3% BSA in PBS for 1 h. Cells were then pre-incubated with a primary antibody against RAGE at a concentration in excess (20 μg/ml in 3% BSA in PBS for 1 h) to block the specific epitope they bind, before cells were incubated with the α-RAGE antibody of interest at 4 μg/ml in 3% BSA-PBS overnight at 4° C. This was followed by 1 h incubation with Alexa-fluorophore-conjugated secondary antibodies. Cells were washed with PBS extensively between all steps, counterstained before imaging with Hoechst (Life Technologies™) and imaged using a LSM710 confocal fluorescence microscopy system (Zeiss, UK). The mean intensity of fluorescence was obtained using imageJ by measuring the integrated density per imaged field, normalised by the number of cells in the respective field and obtaining the mean from >10 fields obtained per condition. A decrease in fluorescence in the pre-blocked condition compared with the not-pre-blocked condition means both antibodies share similar epitope of binding on the same protein.

RAGE [2] = assay: Western blot on protein extracts from ovarian cancer cell lines (OCCL); set-up: species or system human; conditions: whole-cell extracts of SKOV3, OVCAR3, A2780 and cisplatin-resistant lines; antibody 1 μg/mL
Procedure: Confluent cultures of cells were lysed in ice cold RIPA buffer (Sigma-Aldrich), whole-cell protein extracts were quantified with DC protein assay, 30 μg/lane were resolved by SDS-PAGE on TGX precast gels, transferred to mini PDVF membranes, blocked 1 h at RT in 5% Bovine Serum Albumin (BSA) in TBST (Tris Buffered Saline, 0.1% Tween-20) and incubated o/n at 4° C. in the same solution with 1 μg/mL of mA9 (sc-365154, Santa Cruz Biotechnology) antibody, mHA9 antibody or hHA9 antibody, or GAPDH (Santa Cruz Biotechnology) as loading control. Membranes were then washed with TBST and incubated 1 h at RT with 0.1 μg/mL of IgG horseradish peroxidase secondary antibody (GE Healthcare) or […] of Goat F(ab′) 2 Anti-Mouse IgG-F(ab′) 2 horseradish peroxidase secondary antibody (Abcam). Target proteins were visualised after incubation with Clarity Western ECL Substrate and imaged using a ChemiDoc System Bio-Rad Imager. Bands were quantified with ImageLab software. Unless stated all the materials specified above were obtained from Bio-Rad Laboratories.

RAGE protein on SKOV3 = target: T2, RAGE protein on SKOV3 (Homo sapiens, UniProt Q15109); assay: Immunofluorescent staining of RAGE basal expression on SKOV3 cells; format: cell-based; conditions: primary antibody 4 μg/ml
T2 construct: RAGE protein expressed on the extracellular membrane of cancer cells in its native conformation; endogenous in cells; host or cells: SKOV3 (ECACC)
Procedure: To screen binding of α-RAGE antibodies by immunofluorescence, 1.5×10^4 SKOV3 cells/well (obtained from the European Collection of Authenticated Cell Cultures, ECACC, Public Health England, UK) were seeded in 8-well chamber slides (Ibidi) in 300 μl of stripped medium and cultured for 48 h in a humidified, 5% CO2 in air atmosphere incubator at 37° C. After culture, cells were fixed with 4% paraformaldehyde (Sigma) for 20 minutes, permeabilized with 0.1% Triton X-100 (Sigma) for 10 minutes at 4° C. and blocked with 3% BSA in PBS for 1 h. Primary antibodies diluted at 4 μg/ml in 3% BSA-PBS were incubated overnight at 4° C., followed by 1 h incubation with Alexa-488 secondary antibody. Cells were washed with PBS extensively between all steps, counterstained before imaging with Hoechst (Life Technologies™) and imaged using a LSM710 confocal fluorescence microscopy system (Zeiss, UK).

RAGE [3] = target: T1, RAGE; assay: Western blot on protein extracts from human healthy tissues; conditions: brain, breast, kidney, liver, lung, ovary, pancreas, spleen and uterus
SKOV3 cells = assay: Internalisation assay on SKOV3 cells; format: cell-based, human; conditions: for uptake (internalisation), secondary antibody detection: 4 h or 24 h at 37° C.
Procedure: To screen internalization capacity and traffic to lysosomes of α-RAGE antibodies, all the primary antibodies used in the screening were conjugated to pHAb Amine Reactive Dye following manufacturer's instructions (Promega, UK, Cat. No. G983). This type of dye emits fluorescence when traffics to acidic environments (late endosome and lysosome). For this purpose, 1.5×10^4 SKOV3 cells/well were seeded in 8-well chamber slides (Ibidi) in 300 μl of stripped medium and cultured for 24 h in a humidified, 5% CO2 in air atmosphere incubator at 37° C. After culture, cells were washed in pre-warmed (37° C.) Dulbecco's phosphate buffered saline (DPBS) and slides placed on ice. Cells were treated with control medium or medium containing one of the α-RAGE antibodies conjugated to pH-dye at 10 μg/ml, and the 8-well chamber slides were incubated on ice for 30 minutes. Slides were then transferred to the incubator at 37° C. for 4 h or 24 h. After internalization time, cells were washed in DPBS, fixed in 4% paraformaldehyde for 20 min and permeabilized with 0.1% Triton X-100 (Sigma) for 10 minutes at 4° C. Cells were washed with PBS extensively between all steps, counterstained before imaging with Hoechst (Life Technologies™) and imaged using a LSM710 confocal fluorescence microscopy system (Zeiss, UK). Unconjugated α-RAGE antibodies were also used in the internalisation assay. In this case were visualized using Alexa-fluorophore secondary antibodies as described in the immunofluorescence method.

[4] = compared with other clones and AB11451, listed as chimeric HA9
[5] = compared with other clones and AB11451, listed as chimeric-HA9

T2 sequence (Q15109 23-404): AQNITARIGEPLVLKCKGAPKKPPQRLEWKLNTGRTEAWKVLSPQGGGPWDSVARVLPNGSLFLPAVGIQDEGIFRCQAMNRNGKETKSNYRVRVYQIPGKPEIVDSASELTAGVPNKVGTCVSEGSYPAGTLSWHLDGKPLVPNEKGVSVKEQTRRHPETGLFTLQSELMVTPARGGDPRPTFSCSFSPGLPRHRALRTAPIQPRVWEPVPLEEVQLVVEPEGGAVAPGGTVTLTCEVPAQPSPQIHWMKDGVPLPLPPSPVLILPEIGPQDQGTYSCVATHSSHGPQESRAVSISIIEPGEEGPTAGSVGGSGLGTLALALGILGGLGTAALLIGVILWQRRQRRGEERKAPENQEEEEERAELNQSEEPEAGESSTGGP
T1 sequence (Q15109 23-404): as above
T1 sequence (Q15109 23-317 limits assumed): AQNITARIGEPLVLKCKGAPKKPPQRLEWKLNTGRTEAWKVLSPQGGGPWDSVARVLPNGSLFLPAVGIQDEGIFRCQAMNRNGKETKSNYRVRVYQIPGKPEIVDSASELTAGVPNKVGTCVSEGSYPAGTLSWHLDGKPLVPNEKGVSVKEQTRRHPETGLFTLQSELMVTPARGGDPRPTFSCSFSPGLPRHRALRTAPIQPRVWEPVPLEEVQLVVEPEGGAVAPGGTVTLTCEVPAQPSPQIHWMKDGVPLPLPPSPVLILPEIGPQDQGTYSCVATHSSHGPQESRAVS

staining after Abcam antibody pre-blocking (RAGE [1]; Abcam antibody 20 μg/ml pre-incubation): did not result in a decrease
staining after N16 pre-blocking (RAGE [1]; N16 20 μg/ml pre-incubation): statistically significant decrease
immunofluorescent signal (basal RAGE staining) (RAGE protein on SKOV3; [4]): most intense immunofluorescent signal
immunofluorescent signal (basal RAGE staining) (RAGE protein on SKOV3; [5]): higher intensity
RAGE expression detected in human healthy tissues (RAGE [3]): absent or very low expression
B1: hHA9: chimeric humanised format of anti-RAGE antibody clone HA9 (antibody, V domains shown)
VH: EVKLVETGGGLVQPGRPMKLSCVASGFTLSDHWMNWVRQSPEKGLEWVAQIRNRPYKFEKYYSDSVKGRFTISRDDSKNSVYLQMNNLRAEDMGIYYCSSYRYGLAYWGQGTLVTVST
VL: DNLLTQSPAILSVSPGERVSFSCRASQTIDTRIHWYQQRKNGSPRLLIRYISESLSGIPSRFSGSGSGTEFTLTINSVESEDIADYYCQQTESWPITFGSGTKLEIK
RAGE isoform detected by western blot (RAGE [2]): able to detect expression levels of full-length transmembrane RAGE; also recorded: detection of high levels of full-length RAGE isoform
immunofluorescent signal (basal RAGE staining) (RAGE protein on SKOV3; compared with other clones and AB11451): highest detection of RAGE basal expression
uptake (internalisation), secondary antibody detection (SKOV3 cells; [4]): highest uptake
uptake (internalisation), secondary antibody detection (SKOV3 cells; [5]): better uptake
uptake of pH-dye conjugated antibody (SKOV3 cells; pHAb dye conjugate 10 μg/ml, 4 h or 24 h): highest uptake and traffics efficiently to acidic endosomes
